In this series the target is fibrin clot obtained by reacting fibrinogen with thrombin.

B1: recombinant protein HtrA2 (residues 134-458 of the HtrA2 amino acid sequence) (protein)
chain: AVPSPPPASPRSQYNFIADVVEKTAPAVVYIEILDRHPFLGREVPISNGSGFVVAADGLIVTNAHVVADRRRVRVRLLSGDTYEAVVTAVDPVADIATLRIQTKEPLPTLPLGRSADVRQGEFVVAMGSPFALQNTITSGIVSSAQRPARDLGLPQTNVEYIQTDAAIDFGNSGGPLVNLDGEVIGVNTMKVTAGISFAIPSDRLREFLHRGEKKNSSSGISGSQRRYIGVMMLTLSPSILAELQLREPSFPDVQHGVLIHKVILGSPAHRAGLRPGDVILAIGEQMVQNAEDVYEAVRTQSQLAVQIRRGRETLTLYVTPEVTE
B1: the A415 (dissolution of the fibrin clot, spectrophotometer, 2 mg/ml enzyme, 37 C, 24 h) amounted to 1 ± 0.09 A415.

For the origin of these results see patent US20220362355.
